These results are taken from US20140087995A1 (published 2014).

Numbered stars: 1 amine (or outer) side, 2 acyl side, 3 side chain; on linkers, the order of the positions; unused ones are H or OH. Bridge positions count the residues as written; N and C are the ends. Side chains are listed from the residue outwards. Ends that are not written are not given here. * marks the point of attachment. C20 diacid = O=C(O)CCCCCCCCCCCCCCCCCCC(=O)*; γGlu = O=C(O)[C@H](CCC(=O)[*:2])N[*:1]

Experiment [1] concerns the target T1, rat calcitonin receptor (rat, UniProt P32214 25-516).
T1 construct: whole, on cells; also called rCTR; rat calcitonin (a) receptor
T1 sequence (looked up): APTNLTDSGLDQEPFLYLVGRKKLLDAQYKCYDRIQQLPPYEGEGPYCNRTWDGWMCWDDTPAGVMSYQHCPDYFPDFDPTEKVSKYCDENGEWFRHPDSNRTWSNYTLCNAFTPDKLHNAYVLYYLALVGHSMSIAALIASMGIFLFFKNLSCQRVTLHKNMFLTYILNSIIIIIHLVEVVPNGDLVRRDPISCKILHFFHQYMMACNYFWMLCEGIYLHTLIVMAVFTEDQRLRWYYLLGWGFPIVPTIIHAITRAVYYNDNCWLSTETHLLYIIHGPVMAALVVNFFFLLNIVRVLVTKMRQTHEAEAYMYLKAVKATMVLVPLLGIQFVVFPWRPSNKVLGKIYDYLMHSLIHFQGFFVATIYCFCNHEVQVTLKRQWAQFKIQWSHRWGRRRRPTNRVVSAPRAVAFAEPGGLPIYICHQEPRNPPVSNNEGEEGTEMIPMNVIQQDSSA
Description: ratio of binding IC50s: rat calcitonin receptor over rat amylin receptor (reference).

Experiment [2] concerns the target T2, human calcitonin receptor (human, UniProt P30988 25-474).
T2 construct: whole, on cells; also called hCTR; hCT
T2 sequence (looked up): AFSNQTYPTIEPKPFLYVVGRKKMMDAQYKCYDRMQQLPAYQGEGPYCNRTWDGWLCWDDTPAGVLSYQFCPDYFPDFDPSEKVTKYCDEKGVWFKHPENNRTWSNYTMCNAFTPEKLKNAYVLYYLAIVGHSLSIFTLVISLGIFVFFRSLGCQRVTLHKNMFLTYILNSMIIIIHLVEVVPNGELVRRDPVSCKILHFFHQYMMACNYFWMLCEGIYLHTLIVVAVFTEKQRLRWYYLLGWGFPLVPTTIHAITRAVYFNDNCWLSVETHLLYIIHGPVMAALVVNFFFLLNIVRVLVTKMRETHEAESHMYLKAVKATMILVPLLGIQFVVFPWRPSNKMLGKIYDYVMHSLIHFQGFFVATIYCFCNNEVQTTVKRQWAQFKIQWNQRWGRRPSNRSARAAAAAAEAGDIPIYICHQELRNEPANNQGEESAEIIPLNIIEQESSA
Description: ratio of binding IC50s: human calcitonin receptor over human amylin receptor (reference). A digest of the protocol:
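IC₅₀ values were derived by one-site competition analysis of SPA counts. Cell membranes (35 ng/μL) with SPA beads were incubated with test compounds for 120 min at 25° C in Hepes buffer, pH 7.4, containing CaCl2, MgCl₂, OA and Tween20.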

Experiment [3] has as its target T1, rat calcitonin receptor. The experiment can be described thus: SPA competition with 125I-calcitonin, membranes of BHK cells with rat calcitonin receptor (Assay VIII).
Experiment [4] concerns the target T3, rat amylin receptor (rat calcitonin receptor + rat RAMP 3) (rat, UniProt P32214 25-516; Q9JJ73 23-147).
T3 construct: whole, on cells; also called rAmylin-R; rat amylin 3(a) receptor
T3 sequence (looked up) 1: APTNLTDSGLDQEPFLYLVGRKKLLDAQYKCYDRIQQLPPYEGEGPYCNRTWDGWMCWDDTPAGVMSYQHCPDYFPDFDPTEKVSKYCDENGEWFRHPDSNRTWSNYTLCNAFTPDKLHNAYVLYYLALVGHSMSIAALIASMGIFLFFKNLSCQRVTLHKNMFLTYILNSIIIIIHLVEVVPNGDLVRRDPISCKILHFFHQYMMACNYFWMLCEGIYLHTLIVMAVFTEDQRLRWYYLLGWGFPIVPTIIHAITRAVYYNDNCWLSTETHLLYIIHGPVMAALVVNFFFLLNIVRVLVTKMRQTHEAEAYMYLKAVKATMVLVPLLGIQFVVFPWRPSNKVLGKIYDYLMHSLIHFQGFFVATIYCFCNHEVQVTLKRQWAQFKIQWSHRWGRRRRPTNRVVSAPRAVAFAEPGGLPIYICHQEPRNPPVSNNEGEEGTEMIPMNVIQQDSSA
T3 sequence (looked up) 2: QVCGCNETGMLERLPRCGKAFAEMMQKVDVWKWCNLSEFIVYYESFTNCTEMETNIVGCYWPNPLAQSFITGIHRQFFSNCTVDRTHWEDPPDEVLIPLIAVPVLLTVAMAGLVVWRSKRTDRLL
Description: SPA competition with 125I-rat amylin, membranes of BHK cells with rat calcitonin receptor + rat RAMP3 (Assay VI).

Experiment [5] addresses T4, rat calcitonin receptor (rat, UniProt P32214 25-516).
T4 construct: whole, on cells; Membranes of transiently transfected BHK tk'ts 13 cells; also called rCTR; rat calcitonin (a) receptor
T4 sequence (looked up): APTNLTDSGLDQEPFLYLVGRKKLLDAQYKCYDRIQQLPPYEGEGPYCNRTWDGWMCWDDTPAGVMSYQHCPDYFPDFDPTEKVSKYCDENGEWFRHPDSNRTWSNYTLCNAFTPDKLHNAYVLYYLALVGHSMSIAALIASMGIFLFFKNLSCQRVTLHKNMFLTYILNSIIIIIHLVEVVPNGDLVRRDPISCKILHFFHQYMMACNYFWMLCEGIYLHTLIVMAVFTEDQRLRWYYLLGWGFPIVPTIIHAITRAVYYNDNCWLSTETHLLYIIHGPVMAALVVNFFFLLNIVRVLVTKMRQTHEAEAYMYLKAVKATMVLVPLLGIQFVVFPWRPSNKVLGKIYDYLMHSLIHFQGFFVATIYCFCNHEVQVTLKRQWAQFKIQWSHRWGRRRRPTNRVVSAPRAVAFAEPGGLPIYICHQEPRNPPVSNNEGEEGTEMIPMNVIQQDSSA
The experiment can be described thus: ratio of IC50 on rat calcitonin receptor to IC50 on rat amylin receptor (reference m40).

For experiment [6], the target named is T5, human calcitonin receptor (human, UniProt P30988 25-474).
T5 construct: whole, on cells; Membranes of stably transfected cells; also called hCTR; hCT
T5 sequence (looked up): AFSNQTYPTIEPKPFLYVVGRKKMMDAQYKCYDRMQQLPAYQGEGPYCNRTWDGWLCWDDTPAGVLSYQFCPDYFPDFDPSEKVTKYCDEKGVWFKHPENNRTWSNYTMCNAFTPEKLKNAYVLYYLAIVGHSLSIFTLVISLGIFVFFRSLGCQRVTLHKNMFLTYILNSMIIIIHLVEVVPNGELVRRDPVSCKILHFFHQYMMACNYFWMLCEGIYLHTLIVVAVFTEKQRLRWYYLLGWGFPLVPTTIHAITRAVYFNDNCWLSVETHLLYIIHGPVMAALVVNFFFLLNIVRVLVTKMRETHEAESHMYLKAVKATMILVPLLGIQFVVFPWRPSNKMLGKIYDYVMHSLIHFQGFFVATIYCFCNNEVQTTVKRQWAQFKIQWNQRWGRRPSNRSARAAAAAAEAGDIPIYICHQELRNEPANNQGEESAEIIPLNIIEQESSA
Description: ratio of IC50 on human calcitonin receptor to IC50 on human amylin receptor (reference m42), SPA competition. On the procedure: The resulting pellet was resuspended, homogenized and centrifuged (20.000 rpm, 15 min) in a buffer containing 20 mM Na-HEPES and 0.1 mM EDTA (pH 7.4, buffer 2). The resulting pellet was resuspended in buffer 2 and protein concentration was measured (BCA protein Assay, Pierce). The homogenate was kept cold during the whole procedure. The membranes were kept at −80° C. until use. The assay was performed in a 384 well Optiplate (PerkinElmer) in a total volume of 40 ul. Membranes were mixed with SPA beads. Final concentration of membranes 35 ng/μL final and SPA beads was 0.05 mg/well. Test-compounds were dissolved in DMSO and further diluted in assay buffer (50 mM Hepes, pH 7.4, 1 mM CaCl2, 5 mM MgCl₂, 0.1% OA and 0.02% Tween20). […] The final mixture was incubated with shaking at 400 rpm for 120 min at 25° C. prior to centrifugation (1500 rpm, 10 min). Samples were analyzed on TopCounter™ (Packard). The IC₅₀ was calculated using (one site binding competition analysis) GraphPad Prism5 as a measure of receptor affinity.
Membranes were prepared in the following way; the cells were rinsed with PBS and incubated with Versene for approximately 5 min before harvesting. The cells were flushed with PBS and the cell-suspension was centrifuged for 5 min at 1000 rpm. Cells were homogenized (Ultrathurrax) in a buffer containing 20 mM Na-HEPES and 10 mM EDTA (pH 7.4) and centrifuged at 20.000 rpm for 15 min. The resulting pellet was resuspended, homogenized and centrifuged (20.000 rpm, 15 min) in a buffer containing 20 mM Na-HEPES and 0.1 mM EDTA (pH 7.4, buffer 2). The resulting pellet was resuspended in buffer 2 and protein concentration was measured (BCA protein Assay, Pierce). The homogenate was kept cold during the whole procedure. The membranes were kept at −80° C. until use. Assay was performed in a 384 well Optiplate (PerkinElmer) in a total volume of 40 ul. Membranes were mixed with SPA beads.

Experiment [7] has as its target T4, rat calcitonin receptor. The experiment can be described thus: SPA competition with 125I-calcitonin on membranes of BHK tk'ts 13 cells with rat calcitonin receptor (Assay VIII).
Experiment [8] concerns the target T6, rat amylin receptor (rat calcitonin receptor + rat RAMP 3) (rat, UniProt P32214 25-516; Q9JJ73 23-147).
T6 construct: whole, on cells; Membranes of transiently transfected BHK tk'ts 13 cells; also called rAmylin-R; rat amylin 3(a) receptor
T6 sequence (looked up) 1: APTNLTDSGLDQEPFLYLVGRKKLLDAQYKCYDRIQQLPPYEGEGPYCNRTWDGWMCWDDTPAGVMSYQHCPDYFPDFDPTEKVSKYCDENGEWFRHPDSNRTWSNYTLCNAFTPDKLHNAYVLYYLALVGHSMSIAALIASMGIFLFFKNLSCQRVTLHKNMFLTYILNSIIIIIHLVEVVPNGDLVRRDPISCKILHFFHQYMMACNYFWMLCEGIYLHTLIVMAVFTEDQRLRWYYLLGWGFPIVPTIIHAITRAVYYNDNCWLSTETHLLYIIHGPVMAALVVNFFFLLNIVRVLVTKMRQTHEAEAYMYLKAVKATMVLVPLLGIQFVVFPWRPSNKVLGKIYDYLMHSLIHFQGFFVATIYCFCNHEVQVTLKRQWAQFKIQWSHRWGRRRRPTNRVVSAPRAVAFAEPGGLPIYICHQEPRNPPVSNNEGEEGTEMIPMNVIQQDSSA
T6 sequence (looked up) 2: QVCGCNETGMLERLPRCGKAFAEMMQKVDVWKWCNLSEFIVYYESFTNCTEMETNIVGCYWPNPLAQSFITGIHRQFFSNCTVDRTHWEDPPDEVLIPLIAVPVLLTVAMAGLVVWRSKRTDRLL
Description: SPA competition with 125I-rat amylin on membranes of BHK tk'ts 13 cells with rat calcitonin receptor + rat RAMP3 (Assay VI).

B1: N^ε21-[(4S)-4-carboxy-4-[[(4S)-4-carboxy-4-(19-carboxynonadecanoylamino)butanoyl]amino]butanoyl]-[Asp14,Arg17,Lys21,Pro27,Asp35]-h-amylin (peptide)
peptide: KCNTATCATQRLADFLRHSSK([γGlu-γGlu-C20 diacid])NFGAIPSSTNVGSDTY-NH2
modifications: disulfide 2-7; N-terminus assumed
SMILES: CC[C@H](C)[C@H](NC(=O)[C@H](C)NC(=O)CNC(=O)[C@H](Cc1ccccc1)NC(=O)[C@H](CC(N)=O)NC(=O)[C@H](CCCCNC(=O)CC[C@H](NC(=O)CC[C@H](NC(=O)CCCCCCCCCCCCCCCCCCC(=O)O)C(=O)O)C(=O)O)NC(=O)[C@H](CO)NC(=O)[C@H](CO)NC(=O)[C@H](Cc1c[nH]cn1)NC(=O)[C@H](CCCNC(=N)N)NC(=O)[C@H](CC(C)C)NC(=O)[C@H](Cc1ccccc1)NC(=O)[C@H](CC(=O)O)NC(=O)[C@H](C)NC(=O)[C@H](CC(C)C)NC(=O)[C@H](CCCNC(=N)N)NC(=O)[C@H](CCC(N)=O)NC(=O)[C@@H](NC(=O)[C@H](C)NC(=O)[C@@H]1CSSC[C@H](NC(=O)[C@@H](N)CCCCN)C(=O)N[C@@H](CC(N)=O)C(=O)N[C@@H]([C@@H](C)O)C(=O)N[C@@H](C)C(=O)N[C@@H]([C@@H](C)O)C(=O)N1)[C@@H](C)O)C(=O)N1CCC[C@H]1C(=O)N[C@@H](CO)C(=O)N[C@@H](CO)C(=O)N[C@H](C(=O)N[C@@H](CC(N)=O)C(=O)N[C@H](C(=O)NCC(=O)N[C@@H](CO)C(=O)N[C@@H](CC(=O)O)C(=O)N[C@H](C(=O)N[C@@H](Cc1ccc(O)cc1)C(N)=O)[C@@H](C)O)C(C)C)[C@@H](C)O
notes: synthetic analogue of human amylin; also called compound 59
As to B1, the “Ratio rCT/rAmylin binding” value with rat calcitonin receptor [1] was 28.5. Besides, in experiment [2], the “Ratio hCT/hAmylin binding” value turned out to be 4.3. Also, the IC50 in the experiment with rat calcitonin receptor [3] was determined as 18.8 nM; in experiment [4] it was 0.659 nM.

B2: N^ε1-[(4S)-4-carboxy-4-[[(4S)-4-carboxy-4-(19-carboxynonadecanoylamino)butanoyl]amino]butanoyl]-[Glu14,Arg17,Pro21,Pro27,Pro34,Glu35]-h-amylin (peptide)
peptide: K([γGlu-γGlu-C20 diacid])CNTATCATQRLAEFLRHSSPNFGAIPSSTNVGPETY-NH2
modifications: disulfide 2-7 (inferred)
notes: Synthetic acylated analogue of human amylin
Turning to B2, the “Ratio rCT/rAmylin binding” value with rat calcitonin receptor [5] stood at 88.5. Moreover, the “Ratio hCT/hAmylin binding” value in experiment [6] stood at 17.6. In addition, the IC50 is 16.1 nM with rat calcitonin receptor [7] and 0.182 nM in experiment [8].
